The text below walks through data of article PMC5501851, “A tyrosine aminotransferase involved in rosmarinic acid biosynthesis in Prunella vulgaris L” (Scientific Reports, 2017).

Series [1] has as its target T1, PvTAT (tyrosine aminotransferase of Prunella vulgaris) (Prunella vulgaris, UniProt A0A0U1ZFM1).
T1 construct: gene tat; E. coli Rosetta (DE3); cloning primers translate to N-terminus MELQSSAQ and C-terminus FCERHSY
Kind of series: phenylpyruvate absorbance at […] nm, nonlinear Michaelis-Menten fit. The format is biochemical. To be noted: 10 mM α-ketoglutarate; 0.1 mM PLP, 0.75 mM EDTA, 125 mM potassium phosphate pH 8.0, 30 °C.

Substrate in series [2]: N[C@@H](Cc1c[nH]c2ccccc12)C(=O)O
The series can be described thus: purified protein. The format is biochemical, Prunella vulgaris. As to conditions: 10 mM α-ketoglutarate, 0.1 mM PLP, 0.75 mM EDTA, 125 mM potassium phosphate pH 8.0, 30 °C.

Substrate in series [3]: N[C@@H](Cc1ccc(O)cc1)C(=O)O
The series can be described thus: purified protein. In kind it is biochemical, Prunella vulgaris. To be noted: 10 mM α-ketoglutarate, 0.1 mM PLP, 0.75 mM EDTA, 125 mM potassium phosphate pH 8.0, 30 °C.

Substrate in series [4]: O=C(O)CC(=O)C(=O)O
Kind of series: purified protein. In kind it is biochemical, Prunella vulgaris. To be noted: 5.5 mM L-Tyr as amino donor, 0.1 mM PLP, 0.75 mM EDTA, 125 mM potassium phosphate pH 8.0, 30 °C.

Substrate in series [5]: CC(=O)C(=O)O
The series can be described thus: purified protein. To be noted: 5.5 mM L-Tyr as amino donor, 0.1 mM PLP, 0.75 mM EDTA, 125 mM potassium phosphate pH 8.0, 30 °C. The format is biochemical, Prunella vulgaris.

Substrate in series [6]: O=C(O)C(=O)Cc1ccccc1
The series can be described thus: purified protein. In kind it is biochemical, Prunella vulgaris. To be noted: 5.5 mM L-Tyr as amino donor, 0.1 mM PLP, 0.75 mM EDTA, 125 mM potassium phosphate pH 8.0, 30 °C.

Substrate in series [7]: O=C(O)C(=O)Cc1ccc(O)cc1
Kind of series: purified protein. In kind it is biochemical, Prunella vulgaris. To be noted: 10 mM L-Glu as amino donor, 0.3 mM NAD, 0.3 mM CoA, 0.75 mM EDTA, 125 mM potassium phosphate pH 8.0, 30 °C.

Substrate in series [8]: O=C(O)CCC(=O)C(=O)O
Kind of series: purified protein. As to conditions: 5.5 mM L-Tyr as amino donor, 0.1 mM PLP, 0.75 mM EDTA, 125 mM potassium phosphate pH 8.0, 30 °C. In kind it is biochemical, Prunella vulgaris.

What is called Km is the substrate concentration at which the rate is half of its maximum. On to `N[C@@H](Cc1ccccc1)C(=O)O` [L-Phe], for which, in series [1], the Michaelis constant (Km) was 10.2 ± 0.05 mM.

B1: PvTAT (tyrosine aminotransferase of Prunella vulgaris) (Prunella vulgaris) (protein)
chain: MELQSSAQELDAPTTITIKGILGLLVSSTDAKETGKRVISLGIGDPTAYSCFHVSNAAQEAVVEALRSQKFNGYAPTAGLPQAREAIAEYLSRDLPYKLPADSVYVTAGCTQAIEIALSVLARPGCNILLPRPCFPIYGLCASFRNIEVRYFDLHPEKGWEVDLDAVQDLADHNTVAMVIINPGNPCGNVYSHQHLRKVAEMAKRLGIVVIADEVYGQLAFGANPFVPMGIFGSIAPVVTLGSLSKRWLIPGWRLGWLVINDPDGSLMSPKFVERIKKYCDINGGPATFIQAAVPEIIEQTQEVFFRKTINILKQTSDICYQKVEDINGISCPTKPKGAMAFMVKLNISQMKDISDDIDFCFKLAKEESVIILPGIAVGLKNWIRITFAVEPSALEEAMERLKSFCERHSY
notes: E. coli Rosetta (DE3); cloning primers translate to N-terminus MELQSSAQ and C-terminus FCERHSY
One may read the Vmax as the rate approached at saturating substrate. In general, kcat refers to the number of substrate molecules converted per active site and unit of time at saturation. Broadly, the kcat/Km is the second-order rate constant that governs catalysis at low substrate concentration. As to B1, the Km is on record as 8.14 ± 1.04 mM in the series “purified protein [2]”; 0.40 ± 0.05 mM in “purified protein [3]”; 4.72 ± 0.05 mM in the series “purified protein [4]”; 52.06 ± 1.38 mM in the series “purified protein [5]”; 3.90 ± 0.067 mM in “purified protein [6]”; 0.48 ± 0.004 mM in “purified protein [7]”. In “purified protein [8]”, the Michaelis constant (Km) was determined as 10.80 ± 0.19 mM. For the same molecule, the Vmax stood at 1.53 µmol/min/mg in “purified protein [2]”; 1.74 µmol/min/mg in the series “purified protein [3]”; 1.06 µmol/min/mg in the series “purified protein [4]”; 1.3 µmol/min/mg in the series “purified protein [5]”; 0.43 µmol/min/mg in the series “purified protein [6]”; 0.18 µmol/min/mg in the series “purified protein [7]”. For the same molecule, in “purified protein [8]”, the Vmax was determined as 0.92 µmol/min/mg. For the same molecule, the catalytic constant (kcat) in the series “purified protein [2]” is 1.05 ± 0.08 s⁻¹; in “purified protein [3]”, 1.19 ± 0.009 s⁻¹; in the series “purified protein [4]”, 0.73 ± 0.01 s⁻¹; in “purified protein [5]”, 0.89 ± 0.01 s⁻¹; in “purified protein [6]”, 0.3 ± 0.01 s⁻¹; in “purified protein [7]”, 0.121 ± 0.01 s⁻¹. Besides, the catalytic constant (kcat) in the series “purified protein [8]” was 0.63 ± 0.002 s⁻¹. In addition, the kcat/Km in “purified protein [2]” is 130 ± 8 M⁻¹ s⁻¹; in the series “purified protein [3]”, 3030 ± 350 M⁻¹ s⁻¹; in the series “purified protein [4]” it was 150 ± 5 M⁻¹ s⁻¹; in the series “purified protein [5]” it was 20 ± 3 M⁻¹ s⁻¹; in the series “purified protein [6]”, 76 ± 1 M⁻¹ s⁻¹; in the series “purified protein [7]”, 295 ± 35 M⁻¹ s⁻¹. Besides, the kcat/Km in “purified protein [8]” stood at 60 ± 8 M⁻¹ s⁻¹.
